Measured values reported in publication doi:10.1101/2020.03.29.013490.

Key:
[1] = target: recombinant human angiotensin-converting enzyme-2 (ACE2) (human) (UniProt Q9BYF1); test: BLI
[2] = target: 2019-nCoV spike 1 protein (S1) (2019-nCoV (SARS-CoV-2)); test: BLI

recombinant human angiotensin-converting enzyme-2 (ACE2) (human), sequence (Q9BYF1 18-740): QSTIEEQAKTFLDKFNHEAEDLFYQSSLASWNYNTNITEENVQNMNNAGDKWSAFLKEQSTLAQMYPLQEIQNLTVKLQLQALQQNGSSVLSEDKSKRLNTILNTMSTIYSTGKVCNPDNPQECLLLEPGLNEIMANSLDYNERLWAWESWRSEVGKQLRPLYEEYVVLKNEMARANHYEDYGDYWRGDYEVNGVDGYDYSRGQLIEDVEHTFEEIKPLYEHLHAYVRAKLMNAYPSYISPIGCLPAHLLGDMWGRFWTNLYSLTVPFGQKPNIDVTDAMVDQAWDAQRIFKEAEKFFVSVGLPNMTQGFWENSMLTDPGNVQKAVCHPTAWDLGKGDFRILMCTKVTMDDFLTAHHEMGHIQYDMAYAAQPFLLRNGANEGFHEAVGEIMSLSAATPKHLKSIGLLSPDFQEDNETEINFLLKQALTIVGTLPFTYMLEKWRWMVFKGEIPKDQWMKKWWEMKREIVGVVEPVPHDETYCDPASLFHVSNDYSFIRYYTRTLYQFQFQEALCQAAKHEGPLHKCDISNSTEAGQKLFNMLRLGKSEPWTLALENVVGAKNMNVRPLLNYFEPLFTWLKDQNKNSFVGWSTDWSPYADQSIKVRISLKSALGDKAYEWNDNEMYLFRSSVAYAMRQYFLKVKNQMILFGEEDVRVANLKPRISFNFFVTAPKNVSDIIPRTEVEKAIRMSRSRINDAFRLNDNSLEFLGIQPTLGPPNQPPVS
human defensin 5 (HD5), sequence (Q01523 63-94): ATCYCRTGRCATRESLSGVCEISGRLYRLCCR

Substance | Kd [1] | Kd [2]
2019-nCoV spike 1 protein (S1) (domain or fragment) | 2.68 nM | 
human defensin 5 (HD5) (from UniProt Q01523 63-94) (peptide) | 39.3 nM | 82.8 nM
